# In IntAct's records for PubMed 30902834:
# B1: Protein-arginine N-acetylglucosaminyltransferase SseK3 (Salmonella typhimurium (strain SL1344)), P0DUJ7 (parent)
# chain: MFSRVRGFLSCQNYSHTATPAITLPSSGSANFAGVEYPLLPLDQHTPLLFQWFERNPSRFGENQIPIINTQQNPYLNNIINAAIIEKERTIGVLVDGNFSAGQKKALAKLEKQYENIKVIYNSDLDYSMYDKKLSDIYLENIAKIEAQPANVRDEYLLGEIKKSLNEVLKNNPEESLVSSHDKRLGHVRFDFYRNLFLLKGSNAFLEAGKHGCHHLQPGGGCIYLDADMLLTGKLGTLYLPDGIAVHVSRKGNSMSLENGIIAVNRSEHPALKKGLEIMHSKPYGDPYIDGVCGGLRHYFNCSIRHNYEEFCNFIEFKHEHIFMDTSSLTISSWR
# B2: Protein-arginine N-acetylglucosaminyltransferase SseK3 (Salmonella typhimurium (strain SL1344)), P0DUJ7 (parent)
# chain: B1 chain
# partner: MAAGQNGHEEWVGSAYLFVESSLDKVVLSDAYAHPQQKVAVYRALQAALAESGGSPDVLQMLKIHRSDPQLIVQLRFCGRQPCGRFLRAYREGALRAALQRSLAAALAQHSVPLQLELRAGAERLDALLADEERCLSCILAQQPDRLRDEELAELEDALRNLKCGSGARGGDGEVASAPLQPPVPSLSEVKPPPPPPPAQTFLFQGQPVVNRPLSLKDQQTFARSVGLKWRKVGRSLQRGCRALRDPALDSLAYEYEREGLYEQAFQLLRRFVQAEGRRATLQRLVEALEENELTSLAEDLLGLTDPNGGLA
# Variants of: B1
# Settings: with tr10b_human TNFRSF10B
row,Variant,effect of a mutation on the interaction
1,E258A,disrupting interaction

# Variants of: B2
# Settings: with tradd_human TRADD
row,Variant,effect of a mutation on the interaction
1,E258A,disrupting interaction
